Values belong to the sequence of their own block, whether it stands above or below them.
Experiments:
[1] = molecular target: HLA-A*23:01; assay: IEDB peptide-MHC binding, purified MHC/competitive/fluorescence; filed as Kd, often an IC50 or EC50 that approximates it; ≥ and ≤ were set here for values at or beyond the usual limits of such assays
[2] = molecular target: HLA-A*01:01; assay: as above
[3] = molecular target: HLA-B*15:42; assay: as above; conditions: source organism: Escherichia coli 536
[4] = molecular target: HLA-B*45:06; assay: as above; conditions: source organism: Escherichia coli 536
[5] = molecular target: HLA-B*15:01; assay: as above; conditions: source organism: Escherichia coli 536
[6] = molecular target: HLA-B*83:01; assay: as above; conditions: source organism: Escherichia coli 536
[7] = molecular target: HLA-B*08:01; assay: as above; conditions: source organism: Escherichia coli 536
[8] = molecular target: HLA-A*02:01; assay: IEDB peptide-MHC binding, purified MHC/competitive/radioactivity; ≥ and ≤ were set here for values at or beyond the usual limits of such assays
[9] = molecular target: HLA-B*51:01; assay: IEDB peptide-MHC binding, purified MHC/direct/fluorescence; filed as Kd, often an IC50 or EC50 that approximates it; ≥ and ≤ were set here for values at or beyond the usual limits of such assays; conditions: source organism: West Nile virus
[10] = molecular target: HLA-B*35:01; assay: as above
[11] = molecular target: HLA-A*03:01; assay: IEDB peptide-MHC binding, purified MHC/competitive/fluorescence; ≥ and ≤ were set here for values at or beyond the usual limits of such assays
[12] = molecular target: HLA-A*11:01; assay: as above
[13] = molecular target: HLA-B*15:01; assay: as above; conditions: source organism: Sudan ebolavirus
[14] = molecular target: HLA-A*02:01; assay: as above
[15] = molecular target: HLA-A*26:01; assay: IEDB peptide-MHC binding, purified MHC/direct/fluorescence; filed as Kd, often an IC50 or EC50 that approximates it; ≥ and ≤ were set here for values at or beyond the usual limits of such assays; conditions: source organism: Yersinia pestis Nepal516
[16] = molecular target: HLA-B*40:01; assay: as above; conditions: source organism: Yersinia pestis Nepal516
[17] = molecular target: HLA-A*01:01; assay: as above
[18] = molecular target: HLA-A*31:01; assay: as above; conditions: source organism: Yersinia pestis Nepal516
[19] = molecular target: HLA-B*15:01; assay: as above; conditions: source organism: Yersinia pestis
[20] = molecular target: HLA-B*58:01; assay: as above; conditions: source organism: Yersinia pestis Nepal516
[21] = molecular target: HLA-A*03:01; assay: as above
[22] = molecular target: HLA-B*44:02; assay: as above; conditions: source organism: Yersinia pestis Nepal516
[23] = molecular target: HLA-B*27:05; assay: as above; conditions: source organism: Yersinia pestis Nepal516
[24] = molecular target: HLA-A*02:01; assay: as above; conditions: source organism: Yersinia pestis
[25] = molecular target: HLA-A*11:01; assay: as above; conditions: source organism: Yersinia pestis Nepal516
[26] = molecular target: HLA-B*08:01; assay: as above; conditions: source organism: Yersinia pestis Nepal516
[27] = molecular target: HLA-A*24:03; assay: as above; conditions: source organism: Yersinia pestis
[28] = molecular target: HLA-A*69:01; assay: as above; conditions: source organism: Yersinia pestis Nepal516
[29] = molecular target: HLA-B*07:02; assay: as above; conditions: source organism: Yersinia pestis Nepal516
[30] = molecular target: HLA-B*35:01; assay: IEDB peptide-MHC binding, purified MHC/competitive/fluorescence; filed as Kd, often an IC50 or EC50 that approximates it; ≥ and ≤ were set here for values at or beyond the usual limits of such assays
[31] = molecular target: HLA-B*57:01; assay: IEDB peptide-MHC binding, purified MHC/direct/fluorescence; filed as Kd, often an IC50 or EC50 that approximates it; ≥ and ≤ were set here for values at or beyond the usual limits of such assays; conditions: source organism: West Nile virus
[32] = molecular target: HLA-A*31:01; assay: IEDB peptide-MHC binding, purified MHC/competitive/fluorescence; filed as Kd, often an IC50 or EC50 that approximates it; ≥ and ≤ were set here for values at or beyond the usual limits of such assays; conditions: source organism: Encephalitozoon cuniculi GB-M1
[33] = molecular target: HLA-A*03:01; assay: as above; conditions: source organism: Encephalitozoon cuniculi GB-M1
[34] = molecular target: HLA-A*11:01; assay: as above
[35] = molecular target: HLA-B*51:01; assay: as above; conditions: source organism: Escherichia coli 536
[36] = molecular target: HLA-A*26:01; assay: as above; conditions: source organism: Salmonella enterica subsp. enterica serovar Typhi
[37] = source organism: Paramagnetospirillum magnetotacticum MS-1
[38] = source organism: Zaire ebolavirus
[39] = source organism: Sudan ebolavirus
[40] = source organism: Yersinia pestis Nepal516
[41] = source organism: Vaccinia virus WR
[42] = source organism: Vaccinia virus
[43] = source organism: Mycobacterium tuberculosis variant bovis

Kd [1, 37]: 0.0017 µM
Sequence: FFIQTDAAI

Kd ([2]; source organism: Homo sapiens): ≥ 20 µM
Sequence: SMIYFFHHY

Kd [3]: ≥ 5 µM | Kd [4]: ≥ 5 µM | Kd [5]: 4.2 µM | Kd [6]: ≥ 5 µM | Kd [7]: ≥ 20 µM
Sequence: YSRMLYIEF

Sequence: GLSRYVARLS
IC50 ([8]; source organism: Hepatitis B virus): 0.877 µM

Sequence: QPAFMVASF
Kd [9]: ≥ 20 µM | Kd ([10]; source organism: West Nile virus): 0.007 µM

Sequence: AGLITGGRR
IC50 [11, 38]: 69.9 µM | IC50 [12, 38]: 6.55 µM

IC50 ([8]; source organism: Homo sapiens): 0.5 µM
Sequence: GLGQVPLIV

Kd ([2]; source organism: Escherichia coli O139:H28 str. E24377A): ≥ 20 µM
Sequence: FTDPEIVAE

Sequence: VIYRGVNFA
IC50 [13]: ≥ 89.1 µM | IC50 [11, 39]: 5.02 µM | IC50 [14, 39]: 3.89 µM | IC50 [12, 39]: 25.1 µM

Sequence: RMYSPISIL
IC50 ([8]; source organism: Human immunodeficiency virus 1): 0.056 µM

Sequence: YLHRDIFDI
Kd [15]: ≥ 20 µM | Kd [16]: ≥ 20 µM | Kd [17, 40]: ≥ 20 µM | Kd [18]: ≥ 20 µM | Kd ([10]; source organism: Yersinia pestis): 0.113 µM | Kd [19]: 8.64 µM | Kd [20]: ≥ 20 µM | Kd [21, 40]: ≥ 20 µM | Kd [22]: ≥ 20 µM | Kd [23]: ≥ 20 µM | Kd [24]: 0.0365 µM | Kd [25]: ≥ 20 µM | Kd [26]: ≥ 20 µM | Kd [27]: ≥ 20 µM | Kd [28]: ≥ 20 µM | Kd [29]: ≥ 20 µM

Sequence: LAALGDTAW
Kd ([30]; source organism: Japanese encephalitis virus): 0.0892 µM | Kd [31]: 6.18 µM

Sequence: LYQKNIEHF
Kd ([1]; source organism: Vibrio vulnificus YJ016): ≤ 0.0001 µM

IC50 ([8]; source organism: Homo sapiens): 0.164 µM
Sequence: VILGVLLLI

Kd [32]: 0.692 µM | Kd [33]: 1.01 µM | Kd ([34]; source organism: Encephalitozoon cuniculi GB-M1): 0.11 µM
Sequence: CVNDGGLFY

Kd [34, 37]: 3.25 µM
Sequence: MVAYMLER

IC50 ([8]; source organism: Homo sapiens): 2 µM
Sequence: PTLDKVLEV

Kd [35]: ≥ 20 µM | Kd [3]: ≥ 5 µM | Kd [4]: ≥ 5 µM | Kd ([30]; source organism: Escherichia coli 536): 0.0002 µM | Kd [6]: 0.0534 µM | Kd [7]: 0.0434 µM
Sequence: HPASRLFPF

Sequence: AFYTRVLKP
IC50 [11, 41]: ≥ 202 µM | IC50 [12, 41]: 24.2 µM

Sequence: SLMEMDYER
IC50 [11, 42]: ≥ 155 µM | IC50 [14, 42]: 2.2 µM | IC50 [12, 42]: 1.9 µM

Sequence: MVEASGGRY
Kd [36]: 1.42 µM | Kd ([2]; source organism: Salmonella enterica subsp. enterica serovar Typhi): 0.122 µM

IC50 ([8]; source organism: Homo sapiens): 0.5 µM
Sequence: LLDGTATLRL

Sequence: GVRGFPRCR
IC50 [11, 39]: 1.12 µM | IC50 [12, 39]: 33.2 µM

Sequence: ITDRLFFK
Kd ([34]; source organism: Influenza A virus (A/California/04/2009(H1N1))): 0.175 µM

Sequence: TQVEQHHRR
IC50 [11, 38]: ≥ 138 µM | IC50 [12, 38]: 1.67 µM

Sequence: MLAPSTLGY
Kd ([30]; source organism: Mycobacterium tuberculosis F11): ≤ 0.0001 µM | Kd [17, 43]: 0.052 µM | Kd [21, 43]: 0.0345 µM

Source: the Immune Epitope Database (IEDB)
